Data reported in the supplement of paper PMC10567573.

B1: CCDC6 (parent)
chain: TLFKKIQALQKEKETLAVNYEKEE
B2: PI4K2A (parent)
chain: FVKDPQGRIIAVFKPKNEEPYGHL

Variants of: B1
Assay: protein stability index of a GFP-peptide fusion (GPS, HEK-293T) (PSI 1-6); higher = more stable
Conditions: c terminus: a fixed tail appended
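Further: lentivirally expressed fusions sorted by FACS into six bins by GFP to DsRed ratio, PSI derived from sequencing read proportions per bin multiplied by bin number.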

Point of comparison: TLFKKIQALQKEKETLAVNYEKCE, protein stability index 2.34. Against it:
- TLFKKIQALQKEKETLAVNYVKEE — higher, 2.52
- TLFKKIQALQKEKETLAVNYWKEE — lower, 1.92
- TLFKKIQALQKEKETLAVNYYKEE — lower, 1.78
- TLFKKIQALQKEKETLAVNYEAEE — higher, 3.27
- TLFKKIQALQKEKETLAVNYECEE — higher, 3.46
- TLFKKIQALQKEKETLAVNYEDEE — higher, 3.88
- TLFKKIQALQKEKETLAVNYEEEE — higher, 3.72
- TLFKKIQALQKEKETLAVNYEFEE — higher, 2.57
- TLFKKIQALQKEKETLAVNYEGEE — higher, 3.39
- TLFKKIQALQKEKETLAVNYEHEE — higher, 3.15
- TLFKKIQALQKEKETLAVNYEIEE — higher, 2.74
- TLFKKIQALQKEKETLAVNYELEE — higher, 2.89
- TLFKKIQALQKEKETLAVNYEMEE — higher, 3.08
- TLFKKIQALQKEKETLAVNYENEE — higher, 3.12
- TLFKKIQALQKEKETLAVNYEPEE — higher, 3.5
- TLFKKIQALQKEKETLAVNYEQEE — higher, 3.3
- TLFKKIQALQKEKETLAVNYEREE — higher, 2.94
- TLFKKIQALQKEKETLAVNYESEE — higher, 3.29
- TLFKKIQALQKEKETLAVNYETEE — higher, 2.68
- TLFKKIQALQKEKETLAVNYEVEE — higher, 2.94
- TLFKKIQALQKEKETLAVNYEWEE — higher, 2.48
- TLFKKIQALQKEKETLAVNYEYEE — higher, 2.64
- TLFKKIQALQKEKETLAVNYEKAE — higher, 2.68
- TLFKKIQALQKEKETLAVNYEKDE — higher, 3.32
- TLFKKIQALQKEKETLAVNYEKFE — lower, 1.99
- TLFKKIQALQKEKETLAVNYEKGE — higher, 2.58
- TLFKKIQALQKEKETLAVNYEKHE — higher, 2.93
- TLFKKIQALQKEKETLAVNYEKIE — higher, 2.69
- TLFKKIQALQKEKETLAVNYEKKE — higher, 2.68
- TLFKKIQALQKEKETLAVNYEKLE — lower, 2.19
- TLFKKIQALQKEKETLAVNYEKME — higher, 2.7
- TLFKKIQALQKEKETLAVNYEKNE — higher, 3.14
- TLFKKIQALQKEKETLAVNYEKPE — lower, 2.25
- TLFKKIQALQKEKETLAVNYEKQE — higher, 2.63
- TLFKKIQALQKEKETLAVNYEKRE — lower, 2.29
- TLFKKIQALQKEKETLAVNYEKSE — higher, 2.89
- TLFKKIQALQKEKETLAVNYEKTE — higher, 3.02
- TLFKKIQALQKEKETLAVNYEKVE — lower, 2.27
- TLFKKIQALQKEKETLAVNYEKWE — lower, 1.78
- TLFKKIQALQKEKETLAVNYEKYE — higher, 2.76
- TLFKKIQALQKEKETLAVNYEKEA — higher, 2.79
- TLFKKIQALQKEKETLAVNYEKEC — higher, 3.06
- TLFKKIQALQKEKETLAVNYEKED — higher, 3.45
- TLFKKIQALQKEKETLAVNYEKEF — lower, 2.04
- TLFKKIQALQKEKETLAVNYEKEG — higher, 2.68
- TLFKKIQALQKEKETLAVNYEKEH — higher, 2.39
- TLFKKIQALQKEKETLAVNYEKEI — lower, 2.19
- TLFKKIQALQKEKETLAVNYEKEK — higher, 2.41
- TLFKKIQALQKEKETLAVNYEKEL — higher, 2.55
- TLFKKIQALQKEKETLAVNYEKEM — the same, 2.34
- TLFKKIQALQKEKETLAVNYEKEN — higher, 2.7
- TLFKKIQALQKEKETLAVNYEKEP — higher, 2.53
- TLFKKIQALQKEKETLAVNYEKEQ — higher, 2.84
- TLFKKIQALQKEKETLAVNYEKER — lower, 2.1
- TLFKKIQALQKEKETLAVNYEKES — higher, 2.77
- TLFKKIQALQKEKETLAVNYEKET — higher, 2.82
- TLFKKIQALQKEKETLAVNYEKEV — lower, 2.25
- TLFKKIQALQKEKETLAVNYEKEW — lower, 1.91
- TLFKKIQALQKEKETLAVNYEKEY — lower, 2.02

Variants of: B2
Assay: as above
Conditions: c terminus: a fixed tail appended

Point of comparison: FEKDPQGRIIAVFKPKNEEPYGHL, protein stability index 3.33. Against it:
- AVKDPQGRIIAVFKPKNEEPYGHL — lower, 2.63
- CVKDPQGRIIAVFKPKNEEPYGHL — lower, 2.77
- DVKDPQGRIIAVFKPKNEEPYGHL — higher, 3.69
- EVKDPQGRIIAVFKPKNEEPYGHL — higher, 3.71
- GVKDPQGRIIAVFKPKNEEPYGHL — lower, 3.09
- HVKDPQGRIIAVFKPKNEEPYGHL — lower, 2.44
- IVKDPQGRIIAVFKPKNEEPYGHL — lower, 2.18
- KVKDPQGRIIAVFKPKNEEPYGHL — lower, 2.8
- LVKDPQGRIIAVFKPKNEEPYGHL — lower, 2.25
- MVKDPQGRIIAVFKPKNEEPYGHL — lower, 2.76
- NVKDPQGRIIAVFKPKNEEPYGHL — lower, 3.21
- PVKDPQGRIIAVFKPKNEEPYGHL — higher, 4.09
- QVKDPQGRIIAVFKPKNEEPYGHL — higher, 3.69
- SVKDPQGRIIAVFKPKNEEPYGHL — lower, 2.76
- TVKDPQGRIIAVFKPKNEEPYGHL — higher, 3.36
- VVKDPQGRIIAVFKPKNEEPYGHL — lower, 2.84
- WVKDPQGRIIAVFKPKNEEPYGHL — lower, 1.89
- FAKDPQGRIIAVFKPKNEEPYGHL — lower, 2.07
- FCKDPQGRIIAVFKPKNEEPYGHL — lower, 1.33
- FDKDPQGRIIAVFKPKNEEPYGHL — higher, 3.36
- FFKDPQGRIIAVFKPKNEEPYGHL — lower, 2.17
- FGKDPQGRIIAVFKPKNEEPYGHL — lower, 2.09
- FIKDPQGRIIAVFKPKNEEPYGHL — lower, 2.01
- FKKDPQGRIIAVFKPKNEEPYGHL — lower, 2.04
- FLKDPQGRIIAVFKPKNEEPYGHL — lower, 2.45
- FMKDPQGRIIAVFKPKNEEPYGHL — lower, 2.42
- FNKDPQGRIIAVFKPKNEEPYGHL — lower, 3.04
- FPKDPQGRIIAVFKPKNEEPYGHL — lower, 2.13
- FQKDPQGRIIAVFKPKNEEPYGHL — lower, 1.99
- FRKDPQGRIIAVFKPKNEEPYGHL — lower, 2.88
- FSKDPQGRIIAVFKPKNEEPYGHL — lower, 2.44
- FTKDPQGRIIAVFKPKNEEPYGHL — lower, 1.94
- FWKDPQGRIIAVFKPKNEEPYGHL — lower, 1.71
